# Data published in a protein production outcome set (Wang et al. 2014).
# Experiment: label from the status in PepcDB records
row,Sequence,protein production
1,RVGINQLVQHPALDAATTGFKEAFEEAGVDVTFDEQNANGEQGTALTISQQFASDNLDLVLAVATPAAQATAQNITDIPVLFTAVTDAVSAELVDSNEAPGGNVTGTSDIAPIEQQLELLQQLVPDAKSIGIVYASGEVNSQVQVDEVTKAAEPLGLSVNTQTVTTVNEIQQAVEALGDVDVIYVPTDNMVVSGISSLVQVAEQKQIPVIGAESGTVEGGALATLGIDYTELGRQTGEMALRILQDGEDPATMPVETATEFTYVINEDAAERQGVEIPQEILDKAERV,not failed
2,SAAATGPSFWLGNETLKVPLALFALNRQRLCERLRKNPAVQAGSIVVLQGGEETQRYCTDTGVLFRQESFFHWAFGVTEPGCYGVIDVDTGKSTLFVPRLPASHATWMGKIHSKEHFKEKYAVDDVQYVDEIASVLTSQKPSVLLTLRGVNTDSGSVCREASFDGISKFEVNNTILHPEIVECRVFKTDMELEVLRYTNKISSEAHREVMKAVKVGMKEYELESLFEHYCYSRGGMRHSSYTCICGSGENSAVLHYGHAGAPNDRTIQNGDMCLFDMGGEYYCFASDITCSFPANGKFTADQKAVYEAVLRSSRAVMGAMKPGVWWPDMHRLADRIHLEELAHMGILSGSVDAMVQAHLGAVFMPHGLGHFLGIDVHDVGGYPEGVERIDEPGLRSLRTARHLQPGMVLTVEPGIYFIDHLLDEALADPARASFLNREVLQRFRGFGGVRIEEDVVVTDSGIELLTCVPRTVEEIEACMAGCDKAFTPFSGPK,failed
3,SAAHQMDSITYSNNVTQQYIQPQSLQDISAVEDEIQNKIEAARQESKQLHAQINKAKHKIQDASLFQMANKVTSLTKNKINLKPNIVLKGHNNKISDFRWSRDSKRILSASQDGFMLIWDSASGLKQNAIPLDSQWVLSCAISPSSTLVASAGLNNNCTIYRVSKENRVAQNVASIFKGHTCYISDIEFTDNAHILTASGDMTCALWDIPKAKRVREYSDHLGDVLALAIPEEPNSENSSNTFASCGSDGYTYIWDSRSPSAVQSFYVNDSDINALRFFKDGMSIVAGSDNGAINMYDLRSDCSIATFSLFRGYEERTPTPTYMAANMEYNTAQSPQTLKSTSSSYLDNQGVVSLDFSASGRLMYSCYTDIGCVVWDVLKGEIVGKLEGHGGRVTGVRSSPDGLAVCTGSWDSTMKIWSPGYQ,failed
4,SAASQAGSNYPRCWNCGGPWGPGREDRFFCPQCRALQAPDPTRDYFSLMDCNRSFRVDTAKLQHRYQQLQRLVHPDFFSQRSQTEKDFSEKHSTLVNDAYKTLLAPLSRGLYLLKLHGIEIPERTDYEMDRQFLIEIMEINEKLAEAESEAAMKEIESIVKAKQKEFTDNVSSAFEQDDFEEAKEILTKMRYFSNIEEKIKLKKIPL,not failed
5,SAESSKLSATTVEAAPAMIKAKDVISPSEKEESDQTEITKVSVLKNLDEKEMIKEFADRLQRLEAKVDLLVTKADLLAIKADIQELLISAKGEKVPAMKTSAKASSESDDSYMDTSSEDESSSAEEPVNKPAASAAKPATKDSLFSAGFKPAAKDSLFSAGFKPDSLFSAGFEPAAKDSLFSAGFKPGSLFSAGFEPAAKDSLFSAGFKPDSLFSVGVKPAAKDSLFSVGVNGRSFSVTGFDASLPVDDIKSALSKYFSSFGEITRVFVPPSHGTGGSLGYAYIDLKEGAEKALELGRHDVGGWDLVVGKAEPIRSGSTWPFPGRCGNQGRCTFC,failed
6,SAPFDVIGPQEPILAVVGEDAELPCRLSPNVSAKGMELRWFREKVSPAVFVSREGQEQEGEEMAEYRGRVSLVEDHIAEGSVAVRIQEVKASDDGEYRCFFRQDENYEEAIVHLKVAA,failed
7,SAQGLIEVERKFAPGPDTEERLQELGATLEHRVTFRDTYYDTSELSLMLSDHWLRQREGSGWELKCPGVTGVSGPHNEYVEVTSEAAIVAQLFELLGSGEQKPAGVAAVLGSLKLQEVASFITTRSSWKLALSGAHGQEPQLTIDLDSADFGYAVGEVEAMVHEKAEVPAALEKIITVSSMLGVPAQEEAPAKLMVYLQRFRPLDYQRLLEAASSGEATGDSAS,not failed
8,SARFALTVVRHGETRFNKEKIIQGQGVDEPLSETGFKQAAAAGIFLNNVKFTHAFSSDLMRTKQTMHGILERSKFCKDMTVKYDSRLRERKYGVVEGKALSELRAMAKAAREECPVFTPPGGETLDQVKMRGIDFFEFLCQLILKEADQKEQFSQGSPSNCLETSLAEIFPLGKNHSSKVNSDSGIPGLAASVLVVSHGAYMRSLFDYFLTDLKCSLPATLSRSELMSVTPNTGMSLFIINFEEGREVKPTVQCICMNLQDHLNGLTETR,not failed
9,SASFVTSKRDFRARAHSNPLNDAEFLVPEDPLRFDWSPFIPDVGSHPIDYVDLGCGYGGLLCELSIAFPNKYMLGMEIRDRVASYCVTKLEELRRLNSKGYRNIGFIRTNCMKFLPFYFPPSSVEKFFICFPDPHFKKKKHRQRLVSLRFLSEAAYCLRPGGMIYIVTDVEELFAWMTNLFAQHPLFLTMDKELVKQQDVLLPYLLNHTDEAQRMKRRGQDTPYWNVFQRKTVFC,failed
10,SATQIPSTISILATSDIHGNVLNYDYATGKAPTNTQGLAKVSSYVNSVRASKPNVMLIDDGDTIQGTPLSYYYDKIDTTSEYPLMKIMGAMKYDTWTLGNHEFNYGLPTLNRVISDARKENINVLSANTYNSDNTNFVNPYYIKTFNINGKTVNVGILGLTTKCIPDWEDPSHYAGLHFNDLVDEAKLWVPRMKAAGANVVIVAAHSGEEGAADTIPENQIKAIATNVSGIDAIVAGHAHVTVNDTSLKNPNGKTVPVVEPNKWGTFVSQIDITLDNSGNASTINTQNVKMTDSIPEDPNIVNIIQPYQNKTLDYIST,failed
11,SCDSIREDLPRCELWLEFVFDYNMEYADAFNPQVKSVDVLVFDSDDKLLFTKSVKVAALVGGNRMSLTDELDFGSYKVLTVGSLSDRFRLSDNAGNKLVPGTTTLQQVIVSLKRETGGVNFEFQHLYFGEVVEVDHLPSNTNHKIYPVNLIRDTNRFNLALMGYEENKVDGTQYTFEIQAPENAVYSWENEPTGQGPITYVPYYTGPGEISDVVMSARLNTMRLLNRSGWDYKFIIRDANTEAEVWSYNLMTLLSIARPVSRYDGTELPFQEYLDRQSEWNLVFTVVEKNGGGFLQIGIVVGTWIHWLHGMEV,not failed
12,SDCDIEGKDGKQYESVLMVSIDQLLDSMKEIGSNCLNNEFNFFKRHICDANKEGMFLFRAARKLRQFLKMNSTGDFDLHLLKVSEGTTILLNCTGQVKGRKPAALGEAQPTKSLEENKSLKEQKKLNDLCFLKRLLQEIKTCWNKILMGTKEH,not failed
13,SDFSRNLYDIGEQLDSEDLASLKFLSLDYIPQRKQEPIKDALMLFQRLQEKRMLEESNLSFLKELLFRINRLDLLITYLNTRKEEMERELQTPGRAQISAYRVMLYQISEEVSRSELRSFKFLLQEEISKCKLDDDMNLLDIFIEMEKRVILGEGKLDILKRVCAQINKSLLKIINDYEEFSKGEELCGVMTISDSPREQDSESQTLDKVYQMKSKPRGYCLIINNHNFAKAREKVPKLHSIRDRNGTHLDAGSHSVAQAGVQWCDLGSLQPPPPWFG,not failed
14,SDIGQVIHPDDFDKAAADDYVLHEDGEKIYFLIKSKTDEYCFTNLALVHLDGESAVSSKRVLYRYPYAHYPIRHVMFETAGTVDLDVEIKFEIGGKHYSIDVDKKQLEHVKDLYKALLAIAEKQYEGQKMLEFANSSLNHSVTILGGLRQGDMNVPQTFKDLSQESFDWLQGHYYKWNQKDFGSFYEKYINN,not failed
15,SDILLVHGSGYGGWCWDATIRALAAHGARARALDLPGRIFTPGLSLADHAAAILQEIRAPVTLVGHSAGGFSIAAAAEAAAPGLIERLIFLCAYAPRDGASVASMRRAQARQPLRPAIRLAPDRLSYSFDPDLAGEALFHDCPPEVRAAALARMGAEPVGPQEERIRLSARYHALPKHYIRCLEDRAIPPETQEAMTADWPAGSVSTLPAGHSPFLSCPEALAKRLISVAAN,failed
16,SDPEISEQDEEKKKYTSVCVGREEDIRKSERMTAVVHDREVVIFYHKGEYHAMDIRCYHSGGPLHLGEIEDFNGQSCIVCPWHKYKITLATGEGLYQSINPKDPSAKPKWCSKGVKQRIHTVKVDNGNIYVTLSKEPFKCDSDYYATGEFKVIQSSS,failed
17,SEAGGLPLELWRMILAYLHLPDLGRCSLVCRAWYELILSLDSTRWRQLCLGCTECRHPNWPNQPDVEPESWREAFKQHYLASKTWTKNALDLESSICFSLFRRRRERRTLSVGPGREFDSLGSALAMASLYDRIVLFPGVYEEQGEIILKVPVEIVGQGKLGEVALLASIDQHCSTTRLCNLVFTPAWFSPIMYKTTSGHVQFDNCNFENGHIQVHGPGTCQVKFCTFKNTHIFLHNVPLCVLENCEFVGSENNSVTVEGHPSADKNWAYKYLLGLIKSSPTFLPTEDSD,not failed
18,SEAKVTRSCAETRQVLGARGYSLNLIPPALISGEHLRVCPQEYTCCSSETEQRLIRETEATFRGLVEDSGSFLVHTLAARHRKFDEFFLEMLSVAQHSLTQLFSHSYGRLYAQHALIFNGLFSRLRDFYGESGEGLDDTLADFWAQLLERVFPLLHPQYSFPPDYLLCLSRLASSTDGSLQPFGDSPRRLRLQITRTLVAARAFVQGLETGRNVVSEALKVPVSEGCSQALMRLIGCPLCRGVPSLMPCQGFCLNVVRGCLSSRGLEPDWGNYLDGLLILADKLQGPFSFELTAESIGVKISEGLMYLQENSAKVSAQVFQECGPPDPVPARNRRAPPPREEAGRLWSMVTEEERPTTAAGTNLHRLVWELRERLARMRGFWARLSLTVCGDSRMAADASLEAAPCWTGAGRGRYLPPVVGGSPAEQVNNPELKVDASGPDVPTRRRRLQLRAATARMKTAALGHDLDGQDADEDASGSGGGQQYADDWMAGAVAPPARPPRPPYPPRRDGSGGKGGGGSARYNQGRSRSGGASIGFHTQTILILSLSALALLGPR,failed
19,SEDTMDRINKDHDHTTSVASRFILADVITSTAFSNASGDINTYASSYIEYEVGVDNQLYYAEVRENEPSSSSTFNNSWNGIYSSLKNARIIIDQCGEGGRDHGNDVTRGMAEVMAAYNCALIADFFGDAPCSQAALVDEKGSPVYMTPKMDTQQEIYTQIISYLDDAIANLQKEDLADVTEQDFLYAGDADKWLKFAYGLKARYTMRLINRSSNKSADYEKVLDYVSKSFTSADDQAAFDIYDSNNINPFYGFYNSRAGFGASTSLGTKLLAYNDPRANRAFFTPIVDKKRSQVAANDPSLVPAPNGSPDQSTSKYGISAFVYAKTAPTLLMSYHELMFLKAEALCRLNRDAEDALKEAVVAGLLNAENSISIAIKELGSGLNTNSSEVITETSAGKYFDDVVKAKYAANPLQETMIQKYLAMWGASGEATETYNDFRRMKGLNENFITLTNPNNSSKFPLRYPYGNSDTAANPEVKAAYGNGDYVYSEPVWWAGGSR,not failed
20,SEKPAGSLQEQALKRKERLKALRDRQLQGHAPADGEPERKRALEDTETEDRHRELKLRNYTPEDVELKERQVPKAKPASVDDKVKDQLEAANPEPVIEEVDLANLAPRKPDWDLKRDVAKKLEKLERRTQKAIAELIRERLKGSEEELAGAVGAVGVEEGDSD,failed
21,SERNDIINFKALEKELQAALTADEKYKRENAAKLRAVEQRVASYEEFRGIVLASHLKPLERKDKMGGKRTVPWNCHTIQGRTFQDVATEISPEKAPLQPETSADFYRDWRRHLPSGPERYQALLQLGGPRLGCLFQTDVGFGLLGELLVALADHVGPADRAAVLGILCSLASTGRFTLNLSLLSRAERESCKGLFQKLQAMGNPRSVKEGLSWEEQGLEEQSGGLQEEERLLQELLELYQVD,not failed
22,SERRLGVRAWVKENRGSFQPPVCNKLMHQEQLKVMFIGGPNTRKDYHIEEGEEVFYQLEGDMVLRVLEQGKHRDVVIRQGEIFLLPARVPHSPQRFANTVGLVVERRRLETELDGLRYYVGDTMDVLFEKWFYCKDLGTQLAPIIQEFFSSEQYRTGKPIPDQLLKEPPFPLSTRSIMEPMSLDAWLDSHHRELQAGTPLSLFGDTYETQVIAYGQGSSEGLRQNVDVWLWQLEGSSVVTMGGRRLSLAPDDSLLVLAGTSYAWERTQGSVALSVTQDPACKKPLG,not failed
